Here are results for eight molecules from US20190218277A1 (Chugai, published 2019).

For assay [1], the target named is T1, Recombinant soluble E protein (0.8E-His) from DENV-1 (DENV-1, UniProt P27909 281-675).
T1 construct: also called DENV-1 E protein; DV1

Assay [2] deals with T2, Recombinant soluble E protein (0.8E-His) from DENV-4 (DENV-4, UniProt P09866 280-674).
T2 construct: also called DENV-4 E protein; DV4

Assay [3] concerns the target T3, Recombinant soluble E protein (0.8E-His) from DENV-3 (DENV-3, UniProt P27915 281-673).
T3 construct: also called DENV-3 E protein; DV3

The target in assay [4] is T1, Recombinant soluble E protein …. The source holds these as a separate data set.
For assay [5], the target named is T4, Recombinant soluble E protein (0.8E-His) from DENV-2 (DENV-2, UniProt P14340 281-675).
T4 construct: also called DENV-2 E protein; DV2

Another assay has as its target human C1q (Calbiochem) (human, UniProt P02745 23-245; P02746 28-253; P02747 29-245). Briefly: ELISA: antibody coated on the plate at the concentration shown, human C1q added, detected with HRP anti-human C1q, OD 450 nm. Background: In an ELISA, binding on a coated surface is turned into a signal by an enzyme label.
In another assay the target is T5, human FcγRIIIa (158V) (human, UniProt P08637 17-208).
T5 construct: also called human FcγR3a allelic variant 158V
Nature of the assay: SPR (Biacore T200, pH 7.4, 25 °C): His-tagged FcγR captured by anti-His antibody; antibody injected at 100 nM alone (Ab alone) or as 1:1 complex with trimeric CD154 (CD154 IC); binding level / capture level [F].

A further assay concerns the target T6, human FcγRIIIb (NA1) (human, UniProt O75015 17-200).
T6 construct: also called human FcγR3b allelic variant NA1
T6 chain: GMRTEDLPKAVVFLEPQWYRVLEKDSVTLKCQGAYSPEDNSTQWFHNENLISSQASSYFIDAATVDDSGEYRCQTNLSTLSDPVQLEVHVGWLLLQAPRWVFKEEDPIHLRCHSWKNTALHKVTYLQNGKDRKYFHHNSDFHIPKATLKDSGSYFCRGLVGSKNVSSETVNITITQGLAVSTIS
Briefly: SPR (Biacore T200, pH 7.4, 25 °C): His-tagged FcγR captured by anti-His antibody; antibody injected at 100 nM alone (Ab alone) or as 1:1 complex with trimeric CD154 (CD154 IC); binding level / capture level [G].

For a further assay, the target named is T7, mouse FcγRIII (mouse, UniProt P08508 31-215).
T7 construct: also called mFcγRIII; mouse FcγR3
T7 chain: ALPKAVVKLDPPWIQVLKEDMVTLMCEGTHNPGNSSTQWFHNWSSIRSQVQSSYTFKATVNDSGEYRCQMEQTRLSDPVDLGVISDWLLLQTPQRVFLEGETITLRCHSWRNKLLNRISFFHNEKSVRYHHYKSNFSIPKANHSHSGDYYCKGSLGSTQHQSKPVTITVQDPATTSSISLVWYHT
Briefly: SPR (Biacore T200, pH 7.4, 25 °C): His-tagged FcγR captured by anti-His antibody; antibody injected at 100 nM alone (Ab alone) or as 1:1 complex with trimeric CD154 (CD154 IC); binding level / capture level [C]. Background: Surface plasmon resonance follows binding to a sensor surface in real time, without labels.

The next assay deals with T8, mouse FcγRI (mouse, UniProt P26151 25-297).
T8 construct: also called mFcγRI; mouse FcγR1
T8 sequence: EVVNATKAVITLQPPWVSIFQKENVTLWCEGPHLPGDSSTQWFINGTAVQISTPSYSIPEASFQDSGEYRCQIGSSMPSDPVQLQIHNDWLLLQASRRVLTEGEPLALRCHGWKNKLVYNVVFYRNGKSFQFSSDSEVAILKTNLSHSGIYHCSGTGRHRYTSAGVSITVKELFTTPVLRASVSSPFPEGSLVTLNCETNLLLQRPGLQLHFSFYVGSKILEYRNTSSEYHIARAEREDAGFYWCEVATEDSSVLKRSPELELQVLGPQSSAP
Briefly: SPR (Biacore T200, pH 7.4, 25 °C): His-tagged FcγR captured by anti-His antibody; antibody injected at 100 nM alone (Ab alone) or as 1:1 complex with trimeric CD154 (CD154 IC); binding level / capture level [A].

Another assay has as its target T9, human FcγRIIb (human, UniProt P31994 43-217).
T9 construct: also called human FcγR2b
T9 sequence: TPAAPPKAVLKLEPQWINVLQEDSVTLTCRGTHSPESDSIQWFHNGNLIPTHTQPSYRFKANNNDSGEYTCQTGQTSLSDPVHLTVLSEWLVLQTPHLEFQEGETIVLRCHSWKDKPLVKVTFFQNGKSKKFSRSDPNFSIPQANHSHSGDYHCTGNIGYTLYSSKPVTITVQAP
Briefly: SPR (Biacore T200, pH 7.4, 25 °C): His-tagged FcγR captured by anti-His antibody; antibody injected at 100 nM alone (Ab alone) or as 1:1 complex with trimeric CD154 (CD154 IC); binding level / capture level [D].

For another assay, the target named is T10, mouse FcγRIV (mouse, UniProt A0A0B4J1G0 21-203).
T10 construct: also called mFcγRIV; mouse FcγR4
T10 sequence: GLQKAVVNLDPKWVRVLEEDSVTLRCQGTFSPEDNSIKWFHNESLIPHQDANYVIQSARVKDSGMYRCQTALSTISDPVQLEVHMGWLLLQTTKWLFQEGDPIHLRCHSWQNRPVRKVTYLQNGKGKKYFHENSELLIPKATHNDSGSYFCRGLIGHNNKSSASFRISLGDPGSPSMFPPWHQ
Described as above.

The next assay concerns the target T11, human FcγRIa (human, UniProt P12314 16-292).
T11 construct: also called human FcγR1a
Nature of the assay: SPR (Biacore T200, pH 7.4, 25 °C): His-tagged FcγR captured by anti-His antibody; antibody injected at 100 nM alone (Ab alone) or as 1:1 complex with trimeric CD154 (CD154 IC); binding level / capture level [A].

For orientation: Kd means a measure of binding affinity in units of concentration.

Where two headings read alike, the source gives them in different places.

Chain of human C1q (Calbiochem) (P02745 23-245 limits assumed, chain 1 of 3): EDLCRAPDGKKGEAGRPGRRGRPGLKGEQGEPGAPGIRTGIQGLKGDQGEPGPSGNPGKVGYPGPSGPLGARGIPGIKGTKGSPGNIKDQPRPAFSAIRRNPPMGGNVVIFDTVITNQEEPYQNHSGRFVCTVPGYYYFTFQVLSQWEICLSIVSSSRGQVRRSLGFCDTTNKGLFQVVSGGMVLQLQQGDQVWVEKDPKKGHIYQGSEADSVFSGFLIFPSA
Chain of human C1q (Calbiochem) (P02746 28-253 limits assumed, chain 2 of 3): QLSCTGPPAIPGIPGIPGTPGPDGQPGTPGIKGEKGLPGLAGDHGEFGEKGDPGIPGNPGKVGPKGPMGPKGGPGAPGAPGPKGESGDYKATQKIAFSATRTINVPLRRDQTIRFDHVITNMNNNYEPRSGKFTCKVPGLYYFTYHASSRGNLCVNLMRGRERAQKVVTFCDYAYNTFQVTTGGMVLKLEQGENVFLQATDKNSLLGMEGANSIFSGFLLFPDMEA
Chain of human C1q (Calbiochem) (P02747 29-245 limits assumed, chain 3 of 3): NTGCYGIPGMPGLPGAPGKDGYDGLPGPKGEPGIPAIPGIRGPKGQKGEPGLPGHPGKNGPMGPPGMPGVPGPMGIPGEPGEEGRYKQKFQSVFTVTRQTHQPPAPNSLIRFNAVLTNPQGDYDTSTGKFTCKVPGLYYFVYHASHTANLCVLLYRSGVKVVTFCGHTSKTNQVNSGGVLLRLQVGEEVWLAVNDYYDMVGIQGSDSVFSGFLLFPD
T11 sequence (P12314 16-292 limits assumed): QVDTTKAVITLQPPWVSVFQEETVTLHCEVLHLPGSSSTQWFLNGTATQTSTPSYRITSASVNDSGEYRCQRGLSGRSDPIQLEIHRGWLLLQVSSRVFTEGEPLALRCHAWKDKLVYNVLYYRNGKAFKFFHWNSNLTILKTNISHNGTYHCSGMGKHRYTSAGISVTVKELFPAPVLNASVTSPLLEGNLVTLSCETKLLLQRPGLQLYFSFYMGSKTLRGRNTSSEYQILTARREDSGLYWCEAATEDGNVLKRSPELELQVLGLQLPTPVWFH

B1: DG_3CH-SG182/3CL-SK1 (antibody, human IgG1, kappa, V domains shown)
VH: QVQLVQSGPDVEKPGASVKVSCKASGYTFTSNYIHWVRQAPGQGLEWMGVINPRGGSTASAQKFQGRITMTRDTSTSTVYMELSSLRSDDTAVYYCARGGRALFYDSYTTPRDGGSWWFDPWGQGSLVTVSS
VL: DIQLTQSPSSLSASVGDRVTFTCQASQDIRKYLNWYQQKPGKAPKLLIYDASNLKTGVPSRFSGSGSGTDFTFTISSLQPEDVATYYCQQFDDLPITFGQGTRLQIKR
B1: the equilibrium dissociation constant (Kd) came to 22.5 nM in assay [1], 16.9 nM in [2], 6.07 nM in [3] and 32.1 nM in assay [4].

B2: DG_3CH954-SG182/3CL-SK1 (antibody, V domains shown)
VH: QVQLVQSGPDVEKPGASVKVSCKASGYTFTSNYIHWVRQAPGQGLEWMGVINPRGGSRRSAQKFQGRITMTRDTSTSTVYMELSSLRSEDTAVYYCARGGRALFYDSYTTPRDDGSWWFDPWGQGSLVTVSS
VL: DIQLTQSPSSLSASVGDRVTFTCQASQDIRKYLNWYQQKPGKAPKLLIYDASNLKTGVPSRFSGSGSGTDFTFTISSLQPEDVATYYCQQFDDLPITFGQGTRLQIKR
Consider B2, for which the Kd in assay [5] turned out to be 0.122 nM; in assay [2] it was 4.35 nM; in assay [3], 0.124 nM; in assay [4], 0.887 nM.

B3: DG_3CH-SG182/3CL563-SK1 (antibody, V domains shown)
VH: QVQLVQSGPDVEKPGASVKVSCKASGYTFTSNYIHWVRQAPGQGLEWMGVINPRGGSTASAQKFQGRITMTRDTSTSTVYMELSSLRSDDTAVYYCARGGRALFYDSYTTPRDGGSWWFDPWGQGSLVTVSS
VL: DIQLTQSPSSLSASVGDRVTFTCQASQDIRQYLNWYQQKPGKAPKLLIYDASNLKFGVPSRFSGSGSGTDFTFTISSLQPEDVATYYCQQFSALPITFGQGTRLQIKR
Consider B3, for which the Kd in assay [5] came to 4.43 nM; in assay [2] it was 11.8 nM; in [3] it was 3.52 nM; in assay [4] it was 13.4 nM.

B4: DG_3CH-SG182/3CL499-SK1 (antibody, V domains shown)
VH: QVQLVQSGPDVEKPGASVKVSCKASGYTFTSNYIHWVRQAPGQGLEWMGVINPRGGSTASAQKFQGRITMTRDTSTSTVYMELSSLRSDDTAVYYCARGGRALFYDSYTTPRDGGSWWFDPWGQGSLVTVSS
VL: DIQLTQSPSSLSASVGDRVTFTCQASQDIRKYLNWYQQKPGKAPKLLIYDASNLKFGVPSRFSGSGSGTDFTFTISSLQPEDVATYYCQQFDALPITFGQGTRLQIKR
For B4, the Kd was 4.73 nM in assay [5], 8.35 nM in assay [2], 4.03 nM in [3] and 11.1 nM in assay [4].

B5: DG_3CH955-SG182/3CL-SK1 (antibody, V domains shown)
VH: QVQLVQSGPDVEKPGASVKVSCKASGYTFTSNYIHWVRQAPGQGLEWMGVINPRGGSRRSAQKFQGRITMTRDTSTSTVYMELSSLRSEDTAVYYCARGGRALFYDSYTTPRDLGSWWFDPWGQGSLVTVSS
VL: DIQLTQSPSSLSASVGDRVTFTCQASQDIRKYLNWYQQKPGKAPKLLIYDASNLKTGVPSRFSGSGSGTDFTFTISSLQPEDVATYYCQQFDDLPITFGQGTRLQIKR
For the molecule B5, the Kd in [5] is 0.794 nM; in assay [2] it was 7.8 nM; in assay [3], 0.205 nM; in assay [4], 1.13 nM.

B6: DG_3CH953-SG182/3CL499-SK1 (antibody, V domains shown)
VH: QVQLVQSGPDVEKPGASVKVSCKASGYTFTSNYIHWVRQAPGQGLEWMGVINPRGGSRRSAQKFQGRITMTRDTSTSTVYMELSSLRSEDTAVYYCARGGRALFYDSYTTPFDGGSWWFDPWGQGSLVTVSS
VL: DIQLTQSPSSLSASVGDRVTFTCQASQDIRKYLNWYQQKPGKAPKLLIYDASNLKFGVPSRFSGSGSGTDFTFTISSLQPEDVATYYCQQFDALPITFGQGTRLQIKR
As to B6, the Kd in [5] came to 0.905 nM; in assay [2], 5.99 nM; in [3], 0.211 nM; in [4], 1.46 nM.

B7: Anti-CD154 antibody (SLAPH0336a/SLAPL0336a) with Fc variant LALA+KEES (SG1097) (antibody, human IgG1, kappa, L234A L235A)
heavy: EVQLVESGGGSVKPGGSLKLSCAASGFTFSDHYMYWVRQTPEKRLEWVAIISGGGSYTSYPDSMKGRFTISRDNAKNILHLQMSSLKSEDTAMYYCTRESNGKPGFAYWGQGTLVTVSAASTKGPSVFPLAPSSKSTSGGTAALGCLVKDYFPEPVTVSWNSGALTSGVHTFPAVLQSSGLYSLSSVVTVPSSSLGTQTYICNVNHKPSNTKVDKRVEPKSCDKTHTCPPCPAPEAAGGPSVFLFPPKPKDTLMISRTPEVTCVVVDVSHEDPEVKFNWYVDGVEVHNAKTKPREEQYNSTYRVVSVLTVLHQDWLNGKEYKCKVSNEALPAPISKTISKAKGQPREPQVYTLPPSREEMTKNQVSLTCLVKGFYPSDIAVEWESNGQPENNYKTTPPVLDSDGSFFLYSKLTVDKSRWQQGNVFSCSVMHEALHNHYTQKSLSLSP
light: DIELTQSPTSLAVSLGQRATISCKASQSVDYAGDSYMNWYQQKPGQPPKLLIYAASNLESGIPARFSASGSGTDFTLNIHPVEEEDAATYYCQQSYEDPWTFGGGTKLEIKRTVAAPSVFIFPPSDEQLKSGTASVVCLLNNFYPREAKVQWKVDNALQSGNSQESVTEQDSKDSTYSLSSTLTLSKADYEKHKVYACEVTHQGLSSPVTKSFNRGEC
For the molecule B7, in the assay with human C1q (Calbiochem), the binding result is listed as “binds”.

B8: EFT (antibody, human IgG1, kappa)
heavy chain: EVQLVESGGGSVKPGGSLKLSCAASGFTFSDHYMYWVRQTPEKRLEWVAIISGGGSYTSYPDSMKGRFTISRDNAKNILHLQMSSLKSEDTAMYYCTRESNGKPGFAYWGQGTLVTVSAASTKGPSVFPLAPSSKSTSGGTAALGCLVKDYFPEPVTVSWNSGALTSGVHTFPAVLQSSGLYSLSSVVTVPSSSLGTQTYICNVNHKPSNTKVDKRVEPKSCDKTHTCPPCPAPELLGGPSVFLFPPKPKDTLMISRTPEVTCVVVDVEFEDPEVKFNWYVDGVEVHNAKTKPREEQYNSTYRVVSVLTVLHQDWLNGKEYKCKVTNKALPAPIEKTISKAKGQPREPQVYTLPPSREEMTKNQVSLTCLVKGFYPSDIAVEWESNGQPENNYKTTPPVLDSDGSFFLYSKLTVDKSRWQQGNVFSCSVMHEALHNHYTQKSLSLSP
light chain: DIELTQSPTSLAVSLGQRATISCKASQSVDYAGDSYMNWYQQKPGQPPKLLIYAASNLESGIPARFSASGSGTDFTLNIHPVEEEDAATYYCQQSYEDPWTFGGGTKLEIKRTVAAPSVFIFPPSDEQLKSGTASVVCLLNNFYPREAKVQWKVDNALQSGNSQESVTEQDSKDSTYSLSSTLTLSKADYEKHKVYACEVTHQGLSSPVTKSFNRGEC
notes: also called Anti-CD154 antibody (SLAPH0336a/SLAPL0336a) with Fc variant EFT (SG1087); SG1087
As to B8, the binding result with human FcγRIIIa (158V) is given as “binds”; in the assay with human FcγRIIIb (NA1) it was “no binding (tested: 100 nM)”; with mouse FcγRIII it was “binds”; with mouse FcγRI it was “binds”; with human FcγRIIb it was “binds”; in the assay with mouse FcγRIV it was “binds”. Besides, the binding result with human FcγRIa was “binds”.
